Measured values published in patent US20150004155A1 (AIMM THERAPEUTICS B V, published 2015).

T1: purified recombinant RSV-Ga protein (Sino Biologics) (Respiratory Syncytial Virus subtype A, …, UniProt P03423 64-298)
T1 sequence: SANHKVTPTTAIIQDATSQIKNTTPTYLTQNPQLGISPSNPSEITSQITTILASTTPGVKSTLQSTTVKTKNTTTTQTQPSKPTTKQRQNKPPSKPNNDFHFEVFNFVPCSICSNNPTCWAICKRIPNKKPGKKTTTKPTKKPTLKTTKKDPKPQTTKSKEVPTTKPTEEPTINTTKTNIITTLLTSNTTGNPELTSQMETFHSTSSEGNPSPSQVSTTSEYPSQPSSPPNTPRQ

T2: purified recombinant RSV-Gb protein (Sino Biologics) (Respiratory Syncytial Virus subtype B, …, UniProt O36633 67-299)
T2 sequence: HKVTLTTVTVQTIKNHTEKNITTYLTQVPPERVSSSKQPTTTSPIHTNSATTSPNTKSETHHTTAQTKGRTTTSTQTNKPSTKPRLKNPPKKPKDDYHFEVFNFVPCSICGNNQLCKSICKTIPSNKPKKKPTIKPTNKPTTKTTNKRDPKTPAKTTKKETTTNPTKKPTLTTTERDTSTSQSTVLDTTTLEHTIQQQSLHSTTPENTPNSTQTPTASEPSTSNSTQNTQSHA

T3: RSV G protein of RSV A2 (native, on RSV A2 infected HEp2 cells / virus) (Respiratory Syncytial Virus subtype A, …, UniProt P03423 1-298)
T3 sequence: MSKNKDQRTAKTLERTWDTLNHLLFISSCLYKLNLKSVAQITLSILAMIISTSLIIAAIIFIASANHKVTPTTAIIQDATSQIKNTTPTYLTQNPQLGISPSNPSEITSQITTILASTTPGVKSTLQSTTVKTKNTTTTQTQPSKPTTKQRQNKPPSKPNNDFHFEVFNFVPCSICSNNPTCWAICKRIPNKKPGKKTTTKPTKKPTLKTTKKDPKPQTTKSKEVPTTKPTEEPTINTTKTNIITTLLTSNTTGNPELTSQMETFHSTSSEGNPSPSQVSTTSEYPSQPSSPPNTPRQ

T4: RSV G protein in denatured and boiled supernatant of RSV A2 infected HEp2 cells (western blot) (Respiratory Syncytial Virus subtype A, …, UniProt P03423 66-298)
T4 sequence: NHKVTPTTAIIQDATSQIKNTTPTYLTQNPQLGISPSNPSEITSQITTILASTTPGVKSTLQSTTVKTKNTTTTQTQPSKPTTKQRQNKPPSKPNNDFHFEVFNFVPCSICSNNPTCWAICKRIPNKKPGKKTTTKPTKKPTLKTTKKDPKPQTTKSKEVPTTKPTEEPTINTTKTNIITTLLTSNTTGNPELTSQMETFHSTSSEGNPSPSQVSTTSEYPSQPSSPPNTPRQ

B1: AT32 (antibody, V domains shown)
VH: QVQLVQSGAEMKKPGASVKVSCQVAGYTLTELSIHWVRQTPGNGLEWMGGFEPEDGEYIYPQKSQGRVTMTEDTSTGTAYMELRSLRSDDTAVYYCAAEARYCDNSRCSPNFDHWGQGTLVAVSS
VL: DIVMTQSPDSLAVSLGERATFSCKSSQSVLYDSNNKNYLAWYQQRPGQPPKLLIYWASTRESGVPDRFSGSGSGTDFTLTISSLQPEDVAVYYCQQYYDPLITFGQGTRLEIKR
B2: AT49 (antibody, V domains shown)
VH: QVLLVQSGAEIKKPGSSVKISCKASGGTFSSLALNWVRQAPGQGLQWMGGIIPLFGTQNYAQKFQGRVTITADESTSTAYMELSGLRPEDTAVYYCALFLWFGDQTSDDGFDVWGQGTVVTVSS
VL: DIVMTQSPLSLTVTPGEPASISCRSSQSLLHGNGYKYLHWYLQKPGQSPQLLIYLGSNRASGVPARFSGSGSDTDFTLKISTVETEDVGVYYCMQALQSPTFGQGTKVEIKR
B3: AT34 (antibody, V domains shown)
VH: QVQLMESGGGVVQPGKSLRLSCAASGFTFSHYGMHWVRQAPGKGLEWVAVISYDGDKKYYADSVKGRFTISRDNSKNTLHLHMNSLRHEDTAVYFCASQGAKGGHELSFYCALDVWGQGTTVAVSS
VL: DIQMTQSPSTLSASVGDRVTITCRASQGIGSWLAWYQQKPGKAPKLLIYNASGLESGVPSGFSGSGSGTEFTLTISSLQPDDSATYYCQQYNSHTWTFGQGTKVEFKR
B4: AT44 (antibody, V domains shown)
VH: QVQLQASGPGLVKPSETLSLTCNVSGYSVSSGHYWAWVRQSPGKGLEWIGGIHHSGSTYTNPPLKSRVSISIDTSKNQFSLRLTSVTAADTAVYFCARDLYDLSTGPFWFDPWGQGTLVTVSS
VL: EIVMTQSPATLSVSPGERVTLSCRASQSVSTKVVWYQQKFGQAPRLLIYGASTRATGIPVRFSGSGSGTEFTLTISSLQSEDLAVYFCQQYNKWPMYTFGQGTKLEIKR
B5: AT46 (antibody, V domains shown)
VH: EVQLVESGGGLVQPGGSLRLSCAASGFTFSRYVMSWVRQAPGRGLEWVSSITGSGATTYYADSVKGRFTISRDNSKNTVYLQMNRLRAEDTAIYYCANCGRAGQIFDDWGQGTLVTVSS
VL: QPVLTQSPSASASLGASVKLTCTLSSGHRNYAIAWHQQRPEKGPRYLMKIYTNGSHYPGDGTPDRFSGSSSGAERYLTISSLQSEDEADYYCQTWGAGIWVFGGGTKLTVLG
B6: AT42 (antibody, V domains shown)
VH: QVQLQESGPGLVQPSETLSLTCTVSGDSITSNVYYWGWIRQPPGKGLEWIGSIFHSGITHYTPSLNSRVTISVDTSKNQFSLRLSSATAADTAVYYCARHWAGLYFDSWGQGALVAVSS
VL: EIVLTQSPGTLSLSPGERATLSCRASQTVSSSHLAWYQQKPGQAPRLLIHGSSSRATGIPERFSGSGSGPDFTLTISRLKPEDFAVYYCQYYGDSPGSFGEGTKVEIKR
B7: AT40 (antibody, V domains shown)
VH: QVQLVESGGGVVQPGMSHRLSCAASTLIFDRHALHWVRQAPGAGLEWVAILSYDGTTDYYADSVKGRFTVSRDTSKNTVFLQMNGLRPQDTAVYYCARGRALDDFADYGGYYFDYWGQGILVTVSS
VL: DIQMTQSPSSVSASVGDKVTITCRASQGISTWLAWYQQKPGKAPALLIYSASRLQSGVPSRFSGSGSGTDFTLTISSLQPEDYATYYCQQANTFPFTFGPGTKVDIKR
B8: AT36 (antibody, V domains shown)
VH: QVQVVQSGAEVKKPGASVKVSCKTSGYNFIDHSVSWVRQAPGQGLEWMGWISPYNHRTVYAEKFQGRVTMTTDTSTRTVSMELRRLTSDDTAVYFCARDRVQQGEGNFFDHWGQGTPVTVTS
VL: DIVMTQSPDSLAVSLGERATINCKSSQSLLHSSNNKIYLAWYQQKPGQPPKLLLYWASTRESGVPDRFTGSGSGTDFTLTINSLQAEDVAVYYCQQYYTTHPTFGQGTRLEIKR

Experiments:
[1] = biological target: T1, purified recombinant RSV-Ga protein …; experiment: SPR (IBIS MX96), IgG captured on anti-human IgG, RSV Ga injected
[2] = biological target: T2, purified recombinant RSV-Gb protein …; experiment: SPR (IBIS MX96), IgG captured on anti-human IgG, RSV Gb injected
[3] = biological target: T3, RSV G protein of RSV A2 (native, on RSV …); experiment: FACS, RSV infected cells, anti-huIgG-PE
[4] = biological target: T2, purified recombinant RSV-Gb protein …; experiment: SPR (IBIS MX96), IgG captured on anti-human IgG
[5] = biological target: T4, RSV G protein in denatured and boiled …; experiment: western blot, denatured RSV A2 supernatant

Binder | Kd [1] [nM] | koff [1] [s⁻¹] | kon [1] [M⁻¹ s⁻¹] | Kd [2] [nM] | koff [2] [s⁻¹] | kon [2] [M⁻¹ s⁻¹] | binding result [3] | binding result [4] | binding result [5]
B1 | 0.6 | 0.00043 | 750000 |  |  |  |  |  | 
B2 | 0.1 | 3e-05 | 220000 | 0.5 | 5e-05 | 120000 |  |  | 
B3 |  |  |  |  |  |  | binds |  | 
B4 | 0.1 | 3e-05 | 350000 | 0.1 | 4e-05 | 340000 |  |  | 
B5 |  |  |  |  |  |  |  | no binding | 
B6 | 1.3 | 0.00076 | 640000 | 0.3 | 0.0001 | 400000 |  |  | no binding
B7 | 0.2 | 6e-05 | 350000 | 0.1 | 3e-05 | 340000 |  |  | 
B8 |  |  |  |  |  |  | binds |  | 
